The target of test [1] is His-tagged SmpB protein (small protein B), wild type (E. coli) (UniProt P0A832). In words: SPR.
For test [2] the target is unchanged. In words: SPR. The source holds these as a separate data set. (SPR reads the build-up and loss of mass on a sensor chip optically.)

Read-outs that look alike come from different tables or passages of the source.

UniProt P0A832, sequence (P0A832 whole entry): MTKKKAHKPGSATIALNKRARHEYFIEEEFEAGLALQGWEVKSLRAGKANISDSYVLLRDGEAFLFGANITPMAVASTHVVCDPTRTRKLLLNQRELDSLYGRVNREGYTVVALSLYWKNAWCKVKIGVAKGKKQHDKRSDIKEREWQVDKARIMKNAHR

Turning to 30S ribosomal subunit (complex), the Kd in test [1] is 0.17 nM; in test [2], 4.4 nM.
The corresponding values for 50S ribosomal subunit (complex) are 0.17 nM and 4.8 nM.
As to 70S ribosome (complex), the Kd in test [2] was found to be 7.3 nM.

Usually Kd stands for the equilibrium constant for the complex coming apart.

These data come from publication PMC1435831.
